Columns and labels:
[1] = molecular target: Perlecan-fused Chimera-511 (Chimera-511P), not treated with thrombin (human) (UniProt P02675); assay: solid-phase integrin binding assay (ELISA): Chimera-511P coated, α6β1 integrin titrated, as in Example 1 (5)
α6β1 integrin [2] = molecular target: T1, α6β1 integrin (UniProt P23229 24-1011; P05556 21-728); assay: solid-phase integrin binding assay (ELISA): LM511E8 coated at 10 nM, α6β1 integrin titrated 0.001-100 nM in 1 mM MnCl2
T1 construct: Soluble protein added to plates and detected with a biotin-labeled Velcro antibody
T1 sequence (P23229 other isoform, or with tags, fused parts or gaps, chain 1 of 2): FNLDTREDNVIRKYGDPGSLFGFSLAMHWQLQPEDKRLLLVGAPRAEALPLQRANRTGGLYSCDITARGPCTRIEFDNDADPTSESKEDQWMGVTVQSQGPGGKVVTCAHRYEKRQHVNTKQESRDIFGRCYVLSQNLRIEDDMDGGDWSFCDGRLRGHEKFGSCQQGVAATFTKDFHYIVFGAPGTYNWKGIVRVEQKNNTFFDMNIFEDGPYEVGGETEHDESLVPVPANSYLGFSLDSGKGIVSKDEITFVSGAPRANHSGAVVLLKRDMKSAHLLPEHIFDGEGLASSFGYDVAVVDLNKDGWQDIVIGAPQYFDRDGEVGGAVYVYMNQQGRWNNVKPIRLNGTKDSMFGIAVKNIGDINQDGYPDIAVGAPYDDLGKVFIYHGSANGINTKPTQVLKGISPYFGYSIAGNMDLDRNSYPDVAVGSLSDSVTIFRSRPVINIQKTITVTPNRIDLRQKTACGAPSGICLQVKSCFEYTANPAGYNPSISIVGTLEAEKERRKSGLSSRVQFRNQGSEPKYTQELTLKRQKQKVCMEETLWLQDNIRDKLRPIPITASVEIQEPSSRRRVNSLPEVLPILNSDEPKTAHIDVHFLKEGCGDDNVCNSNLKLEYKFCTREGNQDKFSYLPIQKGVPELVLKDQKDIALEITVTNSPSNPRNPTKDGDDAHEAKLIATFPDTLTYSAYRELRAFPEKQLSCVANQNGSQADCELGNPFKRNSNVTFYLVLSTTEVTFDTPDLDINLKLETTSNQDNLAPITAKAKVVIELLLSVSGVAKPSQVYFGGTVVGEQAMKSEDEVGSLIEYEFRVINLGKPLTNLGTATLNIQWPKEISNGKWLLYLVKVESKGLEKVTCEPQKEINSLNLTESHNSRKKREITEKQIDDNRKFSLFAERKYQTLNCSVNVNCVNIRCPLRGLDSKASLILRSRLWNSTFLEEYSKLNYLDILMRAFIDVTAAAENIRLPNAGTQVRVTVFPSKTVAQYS
T1 sequence (P05556 21-728, chain 2 of 2): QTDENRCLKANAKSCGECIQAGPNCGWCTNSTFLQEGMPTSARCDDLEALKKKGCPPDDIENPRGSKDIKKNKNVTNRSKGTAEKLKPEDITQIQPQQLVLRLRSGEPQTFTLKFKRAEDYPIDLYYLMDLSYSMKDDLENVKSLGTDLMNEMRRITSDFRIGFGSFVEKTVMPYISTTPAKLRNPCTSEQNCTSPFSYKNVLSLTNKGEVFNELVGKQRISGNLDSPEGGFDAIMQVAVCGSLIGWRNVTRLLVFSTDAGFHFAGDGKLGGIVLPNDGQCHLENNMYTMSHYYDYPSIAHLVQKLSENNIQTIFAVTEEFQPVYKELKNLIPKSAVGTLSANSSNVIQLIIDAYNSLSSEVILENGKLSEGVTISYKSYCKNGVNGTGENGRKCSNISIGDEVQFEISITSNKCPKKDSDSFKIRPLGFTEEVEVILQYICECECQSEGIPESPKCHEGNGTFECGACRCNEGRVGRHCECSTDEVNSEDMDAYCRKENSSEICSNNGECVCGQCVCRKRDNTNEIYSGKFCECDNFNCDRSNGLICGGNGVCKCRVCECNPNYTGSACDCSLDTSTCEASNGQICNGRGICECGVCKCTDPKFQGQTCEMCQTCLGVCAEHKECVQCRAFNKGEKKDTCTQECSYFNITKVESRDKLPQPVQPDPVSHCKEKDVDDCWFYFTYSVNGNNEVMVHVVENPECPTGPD
Description: (§1) The plates were incubated with gentle agitation at 4° C. overnight for coating.
(§2) Integrin binding assay was performed according to the method of Ido et al. (Hiroyuki Ido et al. J. Biol. Chem., 282, 11144-11154, 2007). The specific procedure was as follows. […] Next, TBST supplemented with 1% BSA was added at 200 μL/well, and the plates were incubated with agitation on a shaker (B. Braun Biotech International CERTOMAT MT) at room temperature for 1 hour for blocking. The plates were washed once with 200 μL/well of 0.1% BSA/TBST. α6β1 integrin was diluted to final concentrations of 0.001 nM, 0.003 nM, 0.01 nM, 0.03 nM, 0.1 nM, 0.3 nM, 1 nM, 3 nM, 10 nM, 30 nM, and 100 nM in 0.1% BSA/TBST containing 1 mM MnCl₂ or 10 mM EDTA. The diluted α6β1 integrin solutions were added to the plates at 50 μL/well and allowed to react with agitation using the shaker at room temperature for 3 hours.
(§3) After the reaction, the plates were washed three times with 200 μL/well of 1 mM MnCl₂/0.1% BSA/TBST or 10 mM EDTA/0.1% BSA/TBST. A 1.5 μg/mL solution of a biotin-labeled Velcro antibody (prepared as described in Takagi, J., Erickson, H. P. and Springer, T. A. (2001) Nat. Struct. Biol. 8, 412-416) in 1 mM MnCl₂/0.1% BSA/TBST was added at 50 μL/well and allowed to react with agitation using the shaker at room temperature for 30 minutes. […]

α6β1 integrin [3] = molecular target: T1, α6β1 integrin; assay: solid-phase integrin binding assay (ELISA): Chimera-511 coated at 10 nM, α6β1 integrin titrated 0.001-100 nM in 1 mM MnCl2
Description: as §1, §2, §3

Work on “α6β1 integrin (from UniProt P23229 24-1011; P05556 21-728) (receptor)” yielded a Kd [1] of 0.9 nM.

B1: Human laminin 511E8 fragment (human laminin α5β1γ1E8) (other)
chain 1: HHHHHHAAEDAAGQALQQADHTWATVVRQGLVDRAQQLLANSTALEEAMLQEQQRLGLVWAALQGARTQLRDVRAKKDQLEAHIQAAQAMLAMDTDETSKKIAHAKAVAAEAQDTATRVQSQLQAMQENVERWQGQYEGLRGQDLGQAVLDAGHSVSTLEKTLPQLLAKLSILENRGVHNASLALSASIGRVRELIAQARGAASKVKVPMKFNGRSGVQLRTPRDLADLAAYTALKFYLQGPEPEPGQGTEDRFVMYMGSRQATGDYMGVSLRDKKVHWVYQLGEAGPAVLSIDEDIGEQFAAVSLDRTLQFGHMSVTVERQMIQETKGDTVAPGAEGLLNLRPDDFVFYVGGYPSTFTPPPLLRFPGYRGCIEMDTLNEEVVSLYNFERTFQLDTAVDRPCARSKSTGDPWLTDGSYLDGTGFARISFDSQISTTKRFEQELRLVSYSGVLFFLKQQSQFLCLAVQEGSLVLLYDFGAGLKKAVPLQPPPPLTSASKAIQVFLLGGSRKRVLVRVERATVYSVEQDNDLELADAYYLGGVPPDQLPPSLRRLFPTGGSVRGCVKGIKALGKYVDLKRLNTTGVSAGCTADLLVGRAMTFHGHGFLRLALSNVAPLTGNVYSGFGFHSAQDSALLYYRASPDGLCQVSLQQGRVSLQLLRTEVKTQAGFADGAPHYVAFYSNATGVWLYVDDQLQQMKPHRGPPPELQPQPEGPPRLLLGGLPESGTIYNFSGCISNVFVQRLLGPQRVFDLQQNLGSVNVSTGCAPALQAQTPGLGPRGLQATARKASRRSRQPARHPA
chain 2: LQHSAADIARAEMLLEEAKRASKSATDVKVTADMVKEALEEAEKAQVAAEKAIKQADEDIQGTQNLLTSIESETAASEETLFNASQRISELERNVEELKRKAAQNSGEAEYIEKVVYTVKQSAEDVKKTLDGELDEKYKKVENLIAKKTEESADARRKAEMLQNEAKTLLAQANSKLQLLKDLERKYEDNQRYLEDKAQELARLEGEVRSLLKDISQKVAVYSTCL
chain 3: EANDILNNLKDFDRRVNDNKTAAEEALRKIPAINQTITEANEKTREAQQALGSAAADATEAKNKAHEAERIASAVQKNATSTKAEAERTFAEVTDLDNEVNNMLKQLQEAEKELKRKQDDADQDMMMAGMASQAAQEAEINARKAKNSVTSLLSIINDLLEQLGQLDTVDLNKLNEIEGTLNKAKDEMKVSDLDRKVSDLENEAKKQEAAIMDYNRDIEEIMKDIRNLEDIRKTLPSGCFNTPSIEKP
notes: range 2534-3327;range 1561-1786;range 1362-1609; Heterotrimer of α5E8, β1E8 and γ1E8, expressed in 293-F cells; also called LM511E8; LM511 E8; not shown: HA tag, N-terminal; FLAG tag, N-terminal
In the case of B1, the Kd (α6β1 integrin [2]) is reported as 0.59 nM.

B2: Chimera-511 (chimeric protein having human fibrinogen fused to an integrin-binding domain of human laminin 511), not treated with thrombin (other)
chain 1: QGVNDNEEGFFSARGHRPLDKKREEAPSLRPAPPPISGGGYRARPAKAAATQKKVERKAPDAGGCLHADPDLGVLCPTGCQLQEALLQQERPIRNSVDELNNNVEAVSQTSSSSFQYMYLLKDLWQKRQKQVKDNENVVNEYSSELEKHQLYIDETVNSNIPTNIGRVRELIAQARGAASKVKVPMKFNGRSGVQLRTPRDLADLAAYTALKFYLQGPEPEPGQGTEDRFVMYMGSRQATGDYMGVSLRDKKVHWVYQLGEAGPAVLSIDEDIGEQFAAVSLDRTLQFGHMSVTVERQMIQETKGDTVAPGAEGLLNLRPDDFVFYVGGYPSTFTPPPLLRFPGYRGCIEMDTLNEEVVSLYNFERTFQLDTAVDRPCARSKSTGDPWLTDGSYLDGTGFARISFDSQISTTKRFEQELRLVSYSGVLFFLKQQSQFLCLAVQEGSLVLLYDFGAGLKKAVPLQPPPPLTSASKAIQVFLLGGSRKRVLVRVERATVYSVEQDNDLELADAYYLGGVPPDQLPPSLRRLFPTGGSVRGCVKGIKALGKYVDLKRLNTTGVSAGCTADLLVGRAMTFHGHGFLRLALSNVAPLTGNVYSGFGFHSAQDSALLYYRASPDGLCQVSLQQGRVSLQLLRTEVKTQAGFADGAPHYVAFYSNATGVWLYVDDQLQQMKPHRGPPPELQPQPEGPPRLLLGGLPESGTIYNFSGCISNVFVQRLLGPQRVFDLQQNLGSVNVSTGCAPALQAQTPGLGPRGLQAHHHHHHHHHH
chain 2: ADSGEGDFLAEGGGVRGPRVVERHQSACKDSDWPFCSDEDWNYKCPSGCRMKGLIDEVNQDFTNRINKLKNSLFEYQKNNKDSHSLTTNIMEILRGDFSSANNRDNTYNRVSEDLRSRIEVLKRKVIEKVQHLARLEGEVRSLLKDISQKVAVYSTCL
chain 3: YVATRDNCCILDERFGSYCPTTCGIADFLSTYQTKVDKDLQSLEDILHQVENKTSEVKQLIKAIQLTYNPDESSKPNMIDAATLKSRKMLEEIMKYEASILTHDSSIEEIMKDIRNLEDIRKTLPSGCFNTPSIEKP
notes: range 31-194;range 2716-3310;range 20-151;range 1761-1786;range 27-132;range 1579-1609; Chains in order: Chimera-α5, Chimera-β1, Chimera-γ1; also called Combination-3
B2 gave a Kd (α6β1 integrin [3]) of 0.58 nM.
